Measured values from patent US20050222029A1 (MYRIAD GENETICS, published 2005).

Legend:
Assay in all cases: yeast two-hybrid
[1] = target: T1, GTPase-activiating protein 1 1413-1567 (human, UniProt P46940 1413-1567)
T1 construct: prey (Gal4 AD-HA fusion); also called IQGAP1; IQGAP
T1 sequence (looked up): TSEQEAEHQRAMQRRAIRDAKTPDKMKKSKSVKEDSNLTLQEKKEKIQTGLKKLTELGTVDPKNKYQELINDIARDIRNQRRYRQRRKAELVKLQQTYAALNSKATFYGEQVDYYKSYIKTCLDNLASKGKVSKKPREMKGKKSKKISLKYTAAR

[2] = target: T2, Pallid 21-172 (human, UniProt Q9UL45 21-172)
T2 construct: prey (Gal4 AD-HA fusion)
T2 sequence (looked up): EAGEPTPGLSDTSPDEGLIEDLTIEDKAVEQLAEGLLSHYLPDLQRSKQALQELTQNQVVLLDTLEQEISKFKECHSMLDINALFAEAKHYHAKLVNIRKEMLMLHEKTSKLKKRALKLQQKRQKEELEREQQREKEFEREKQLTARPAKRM

[3] = target: T3, GTPase-activiating protein 1 1419-1657 (human, UniProt P46940 1419-1657)
T3 construct: prey (Gal4 AD-HA fusion); also called IQGAP1; IQGAP
T3 sequence (looked up): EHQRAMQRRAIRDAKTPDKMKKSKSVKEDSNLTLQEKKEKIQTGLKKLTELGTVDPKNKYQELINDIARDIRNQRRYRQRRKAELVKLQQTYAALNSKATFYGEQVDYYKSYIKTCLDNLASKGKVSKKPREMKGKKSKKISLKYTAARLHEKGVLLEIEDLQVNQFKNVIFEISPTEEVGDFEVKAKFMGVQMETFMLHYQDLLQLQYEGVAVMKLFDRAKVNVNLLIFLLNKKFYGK

[4] = target: T4, Hook2 protein 201-559 (human, UniProt Q96ED9 201-559)
T4 construct: prey (Gal4 AD-HA fusion)
T4 sequence (looked up): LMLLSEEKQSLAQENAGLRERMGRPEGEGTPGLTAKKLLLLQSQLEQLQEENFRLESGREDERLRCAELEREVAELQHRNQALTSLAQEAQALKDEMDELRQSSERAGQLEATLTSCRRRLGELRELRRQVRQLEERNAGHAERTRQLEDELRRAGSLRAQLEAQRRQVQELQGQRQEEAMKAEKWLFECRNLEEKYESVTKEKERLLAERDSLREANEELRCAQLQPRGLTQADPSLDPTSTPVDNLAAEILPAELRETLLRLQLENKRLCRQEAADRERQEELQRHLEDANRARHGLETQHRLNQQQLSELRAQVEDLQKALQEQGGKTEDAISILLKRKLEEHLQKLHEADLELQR

[5] = target: T5, Intersection 1 210-633 (human, UniProt Q15811 210-633)
T5 construct: prey (Gal4 AD-HA fusion); also called Intersectin 1; ITSN1
T5 sequence (looked up): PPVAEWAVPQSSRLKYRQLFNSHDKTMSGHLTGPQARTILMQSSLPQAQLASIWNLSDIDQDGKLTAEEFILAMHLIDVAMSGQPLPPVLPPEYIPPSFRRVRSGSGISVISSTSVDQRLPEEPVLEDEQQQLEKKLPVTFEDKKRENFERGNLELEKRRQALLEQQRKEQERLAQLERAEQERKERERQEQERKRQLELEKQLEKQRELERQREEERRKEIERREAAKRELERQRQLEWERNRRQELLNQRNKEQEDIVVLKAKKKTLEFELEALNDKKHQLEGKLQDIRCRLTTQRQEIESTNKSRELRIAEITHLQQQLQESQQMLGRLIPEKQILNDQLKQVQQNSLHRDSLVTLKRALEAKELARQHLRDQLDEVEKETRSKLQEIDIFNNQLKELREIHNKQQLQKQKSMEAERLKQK

[6] = target: T6, GTPase-activiating protein 1 1299-1555 (human, UniProt P46940 1299-1555)
T6 construct: prey (Gal4 AD-HA fusion); also called IQGAP1; IQGAP
T6 sequence (looked up): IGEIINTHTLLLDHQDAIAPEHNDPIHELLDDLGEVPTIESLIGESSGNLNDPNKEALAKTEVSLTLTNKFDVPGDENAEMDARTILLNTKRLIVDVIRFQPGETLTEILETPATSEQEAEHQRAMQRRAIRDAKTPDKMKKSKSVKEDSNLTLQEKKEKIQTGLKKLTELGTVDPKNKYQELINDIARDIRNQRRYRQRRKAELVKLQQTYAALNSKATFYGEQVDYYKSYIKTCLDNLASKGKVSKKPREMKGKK

[7] = target: T7, Keratin 5 282-448 (human, UniProt P13647 282-448)
T7 construct: prey (Gal4 AD-HA fusion)
T7 sequence (looked up): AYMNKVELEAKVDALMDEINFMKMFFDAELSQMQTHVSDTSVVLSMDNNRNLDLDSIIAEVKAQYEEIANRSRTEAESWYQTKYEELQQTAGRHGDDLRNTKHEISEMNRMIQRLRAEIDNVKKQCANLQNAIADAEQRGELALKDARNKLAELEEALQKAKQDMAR

[8] = target: T8, Intersection 1 387-611 (human, UniProt Q15811 387-611)
T8 construct: prey (Gal4 AD-HA fusion); also called Intersectin 1; ITSN1
T8 sequence (looked up): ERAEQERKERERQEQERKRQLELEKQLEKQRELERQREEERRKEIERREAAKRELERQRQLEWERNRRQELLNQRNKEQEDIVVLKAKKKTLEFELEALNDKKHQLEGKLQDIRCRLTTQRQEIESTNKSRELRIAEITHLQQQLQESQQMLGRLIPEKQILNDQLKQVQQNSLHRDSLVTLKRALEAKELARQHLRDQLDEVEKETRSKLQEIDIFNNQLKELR

Measured: binding result

B1: Tumor Suppressor (TSG101) 240-391 (other, human, UniProt Q99816 240-390, looked up)
chain: WRMKEEMDRAQAELNALKRTEEDLKKGHQKLEEMVTRLDQEVAEVDKNIELLKKKDEELSSALEKMENQSENNDIDEVIIPTAPLYKQILNLYAEENAIEDTIFYLGEALRRGVIDLDVFLKHVRLLSRKQFQLRALMQKARKTAGLSDLY
notes: range 240-391; bait (Gal4 DBD fusion); also called TSG101 240-390
binds: all assays above
